Results taken from article PMC5823870 (Scientific Reports, 2018).

Columns and labels:
O=S(O)(O)=S = test: purified protein; conditions: 12 mM potassium phosphate pH 7.4, 25 °C, cyanide 12 mM as sulfur acceptor (methods print potassium cyanate), thiosulfate 0 to 100 mM
[1] = molecular target: Blh DUF442 domain (ST domain) (Xylella fastidiosa, UniProt Q9PFB0); conditions: 12 mM potassium phosphate pH 7.4, 25 °C; 12 mM thiosulfate; cyanide as sulfur acceptor
Chain of Blh DUF442 domain (ST domain) (Q9PFB0 1-141 limits assumed): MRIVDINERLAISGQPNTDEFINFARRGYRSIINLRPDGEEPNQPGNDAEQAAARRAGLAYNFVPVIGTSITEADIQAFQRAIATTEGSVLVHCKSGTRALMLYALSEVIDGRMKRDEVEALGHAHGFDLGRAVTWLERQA

Row | Compound | Km (O=S(O)(O)=S) [mM] | rhodanese assay, iron-thiocyanate absorbance at 460 nm [1]
1 | full-length Blh (Xylella fastidiosa 9a5c) | 6.2 | –
2 | O=S(=O)(O)S [thiosulfate] | – | catalyze the transfer of the sulfane sulfur of thiosulfate to cyanide
